Reference: PMC4357719, “Roles of Rad51 paralogs for promoting homologous recombination in Leishmania infantum”

What was measured:
Experiment in all cases: competition EMSA; preferred substrate in mixture; 25 mM MOPS pH 7.0, 0.2% Tween-20, 1 mM CaCl2, 2 mM DTT; 25 nM 32P-DNA; 37 C 10 min, then 0.2% glutaraldehyde 15 min; 8% TBE acrylamide gel
Details in all cases: protein: recombinant; tags: C-terminal 10xHis; N-terminal GST cleaved with PreScission; label: 32P on strand 3 (JYM1745); D-loop: 1:2 with unpaired bubble, 3 paired to 2 in the bubble
[1] = target: T1, LiRad51-3 (Leishmania infantum, UniProt E9AHR7 1-687)
T1 sequence: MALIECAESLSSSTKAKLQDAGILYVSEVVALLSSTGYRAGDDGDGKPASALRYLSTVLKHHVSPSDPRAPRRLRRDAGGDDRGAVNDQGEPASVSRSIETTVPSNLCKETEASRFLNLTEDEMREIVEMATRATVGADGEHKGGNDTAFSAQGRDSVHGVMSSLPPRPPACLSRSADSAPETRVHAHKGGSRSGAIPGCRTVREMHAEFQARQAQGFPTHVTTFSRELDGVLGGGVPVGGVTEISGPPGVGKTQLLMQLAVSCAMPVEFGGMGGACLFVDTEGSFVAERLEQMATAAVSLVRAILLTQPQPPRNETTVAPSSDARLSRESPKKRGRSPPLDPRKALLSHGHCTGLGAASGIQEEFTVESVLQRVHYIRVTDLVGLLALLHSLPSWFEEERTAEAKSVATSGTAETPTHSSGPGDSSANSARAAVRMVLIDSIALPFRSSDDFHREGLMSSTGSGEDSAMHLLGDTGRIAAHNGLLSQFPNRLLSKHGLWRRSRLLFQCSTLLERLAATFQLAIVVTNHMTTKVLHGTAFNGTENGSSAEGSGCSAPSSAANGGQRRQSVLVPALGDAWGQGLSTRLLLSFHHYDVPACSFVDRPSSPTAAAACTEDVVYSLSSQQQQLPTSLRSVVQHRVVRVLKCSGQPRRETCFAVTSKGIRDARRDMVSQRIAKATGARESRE

[2] = target: T2, LiRad51-6 (Leishmania infantum, UniProt A4I499 1-649)
T2 sequence: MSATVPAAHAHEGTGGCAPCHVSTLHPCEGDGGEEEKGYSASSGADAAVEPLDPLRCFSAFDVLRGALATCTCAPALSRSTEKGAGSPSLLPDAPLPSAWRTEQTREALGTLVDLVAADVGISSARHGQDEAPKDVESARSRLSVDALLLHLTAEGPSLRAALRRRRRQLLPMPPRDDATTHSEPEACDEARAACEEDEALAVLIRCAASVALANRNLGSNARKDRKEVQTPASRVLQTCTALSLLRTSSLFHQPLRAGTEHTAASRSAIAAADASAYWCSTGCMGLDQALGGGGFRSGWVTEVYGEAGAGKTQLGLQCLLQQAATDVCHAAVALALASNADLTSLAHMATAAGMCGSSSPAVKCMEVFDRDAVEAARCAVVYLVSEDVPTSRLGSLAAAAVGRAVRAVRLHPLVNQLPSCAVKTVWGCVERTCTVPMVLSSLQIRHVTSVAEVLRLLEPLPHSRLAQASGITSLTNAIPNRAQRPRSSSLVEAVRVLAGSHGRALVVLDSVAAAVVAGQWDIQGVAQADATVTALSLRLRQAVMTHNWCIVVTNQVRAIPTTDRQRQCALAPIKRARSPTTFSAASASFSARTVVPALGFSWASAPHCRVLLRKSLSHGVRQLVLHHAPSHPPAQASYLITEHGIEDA

[3] = target: T3, LiRad51-4 (Leishmania infantum, UniProt A4HUT5 1-518)
T3 sequence: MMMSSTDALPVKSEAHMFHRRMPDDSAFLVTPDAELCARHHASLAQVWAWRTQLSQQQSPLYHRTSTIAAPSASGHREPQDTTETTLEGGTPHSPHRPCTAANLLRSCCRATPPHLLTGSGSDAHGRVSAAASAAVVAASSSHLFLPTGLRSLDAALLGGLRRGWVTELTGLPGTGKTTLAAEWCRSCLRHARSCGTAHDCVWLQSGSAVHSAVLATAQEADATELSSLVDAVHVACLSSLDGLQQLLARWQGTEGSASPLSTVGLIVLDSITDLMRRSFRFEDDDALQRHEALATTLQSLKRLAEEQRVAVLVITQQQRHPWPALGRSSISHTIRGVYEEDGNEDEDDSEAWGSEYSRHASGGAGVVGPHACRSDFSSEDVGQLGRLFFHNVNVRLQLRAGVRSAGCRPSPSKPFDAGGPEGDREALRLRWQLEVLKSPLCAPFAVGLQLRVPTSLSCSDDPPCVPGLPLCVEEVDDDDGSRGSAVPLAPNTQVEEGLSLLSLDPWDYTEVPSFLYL

Measured: binding result

B1: D-loop (JYM1395/JYM1396/JYM1745) (structured_DNA)
DNA 1: GCCAGGGACGGGGTGAACCTGCAGGTGGGCGGCTGCTCATCGTAGGTTAGTATCGACCTATTGGTAGAATTCGGCAGCGTCATGCGACGGC
DNA 2: GCCGTCGCATGACGCTGCCGAATTCTACCACGCTACTAGGGTGCCTTGCTAGGACATCTTTGCCCACCTGCAGGTTCACCCCGTCCCTGGC
DNA 3: AAGATGTCCTAGCAAGGCACCCTAGTAGC
binds: all assays above
